Assay results reported in patent US20170146535A1 (SPRING BIOSCIENCE, published 2017).

target: human indoleamine 2,3-dioxygenase 1 (IDO1) (human, UniProt P14902 1-403); experiment: IHC on FFPE HeLa cells (untreated or IFN-gamma treated) and FFPE human tissues
Method: The anti-IDO1 antibodies generated in Example 1 were used in further IHC analyses. For IHC analyses, tissue sections were incubated with the antibodies for 16 min followed by standard washes and secondary detection with Optiview DAB IHC Detection Kit (Ventana Medical System, Inc., Tucson, Ariz.). The specificity of each antibody was assessed on formalin-fixed, paraffin-embedded (FFPE) cells with different IDO1 expression levels (human cervical cancer HeLa cells that are either untreated as control (negative) or treated with interferon-γ (high expression); see FIGS. 2A-2b) or from different tissue types (Tonsil, Thymus, Colon, Endometrial adenocarcinoma, Ovarian adenocarcinoma, Pancreatic adenocarcinoma, and Stomach adenocarcinoma; see FIGS. 3A-3G).

Sequence of human indoleamine 2,3-dioxygenase 1 (IDO1) (P14902 whole entry): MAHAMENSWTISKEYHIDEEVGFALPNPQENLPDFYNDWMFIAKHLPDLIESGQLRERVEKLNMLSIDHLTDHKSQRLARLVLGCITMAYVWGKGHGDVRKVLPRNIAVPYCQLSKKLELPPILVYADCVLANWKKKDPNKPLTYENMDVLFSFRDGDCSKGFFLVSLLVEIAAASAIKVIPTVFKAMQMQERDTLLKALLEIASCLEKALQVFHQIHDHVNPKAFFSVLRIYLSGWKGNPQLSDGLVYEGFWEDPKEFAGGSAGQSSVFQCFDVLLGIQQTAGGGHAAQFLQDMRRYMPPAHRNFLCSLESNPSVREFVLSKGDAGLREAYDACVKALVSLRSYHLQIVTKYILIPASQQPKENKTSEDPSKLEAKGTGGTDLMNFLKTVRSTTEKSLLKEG

Row | binding result | Binder
1 | binds | J6H15L16 antibody (antibody, V domains shown, the constant regions are not) VH: QEQLVESGGGLVQPEGSLTLTCTASGFSFSTNYWICWVRQAPGKGLEWTACIYIGGRGSIYYASWAKGRFTISKTSSTTVTLQMTSLTAADTATYFCARDLTTAYGATDLRFWGPGTLVTVSS VL: DVVMTQTPSPVSAAVGGTVSISCQSSQSVGDNNRLSWFQQKPGQPPKLLIYSASTLASGVPSRFKGSGSGTEYTLTISGVQCDDAATYYCLGEFSGSDEDVFGGGTEVVVK
2 | binds | J6H12L16 antibody (antibody, V domains shown, the constant regions are not) VH: QEQLVESGGGLVRPEGSLTLTCTASGFSFSTNYWICWVRQAPGKGLEWTACIYIGGRGSIYYASWAKGRFTISKTSSTTVTLQMTSLTAADTATYFCARDLTTAYGATDLRFWGPGTLVTVSS VL: DVVMTQTPSPVSAAVGGTVSISCQSSQSVGDNNRLSWFQQKPGQPPKLLIYSASTLASGVPSRFKGSGSGTEYTLTISGVQCDDAATYYCLGEFSGSDEDVFGGGTEVVVK
3 | binds | anti-IDO1 antibody SP260 (antibody, V domains shown, the constant regions are not) VH: QEQLVESGGGLVQPEGSLTLTCTASGFSFSTNYWICWVRQAPGKGLEWTACIYVGGRGSIYYASWAKGRFTISKTSSTTVTLQMTSLTAADTATYFCARDLTTAYGATDLRFWGPGTLVTVSS VL: DVVMTQTPSPVSAAVGGTVSISCQSSQSVGDNNRLSWFQQKPGQPPKLLIYSASTLASGVPSRFKGSGSGTEYTLTISGVQCDDAATYYCLGEFSGSDEDVFGGGTEVVVK
4 | binds | J6H20L16 antibody (antibody, V domains shown, the constant regions are not) VH: QEQLVESGGGLVQPEGSLTLTCTASGFSFSTNYWICWVRQAPGKGLEWTACIYIGGRGSIYYASWAKGRFTISKTSSTTVTLQMTSLTAADTATYSCARDLTTAYGATDLRFWGPGTLVTVSS VL: DVVMTQTPSPVSAAVGGTVSISCQSSQSVGDNNRLSWFQQKPGQPPKLLIYSASTLASGVPSRFKGSGSGTEYTLTISGVQCDDAATYYCLGEFSGSDEDVFGGGTEVVVK
